Source: the DeepSol protein solubility set

Experiment: soluble on expression in E. coli; label from the status in PepcDB or PDB records

Row | Sequence | soluble on expression in E. coli
1 | MPFIYRRRVQFYETDAQGIVHHSNYFRYFEEARGEFLRSKGFPYSKMRDMGLEVVLLNAYCEYKKPLFYDDVFEVHLNLEELSRFTFTFSYIVFKEDIAVAKANTKHCMVKNGKIVSIPKEVLEVLKD | soluble
2 | MSLGNYAKPIGTAPVTANPTDYSSALVCLNQYARTNRIVAPRIAIGRIADYTGKEESDGSGRKVTQGASLMAVSAFAKAGMPLVERFDTSVSEFELKYANNKLISDRPNPAPDAPADFRKILAGQVPGSDFYVIGGITELNYNIRSAGIDAYAGDKDTDGLKGNFRRRVFIMNIALDLRLVNTRTLEVVDVISYQKQVVGREVSAGVFDFLNGNLFDISAGRGALEPMQLAVRALIERATVEMAANLYGMPGPESCLRFDPFGDATVGQTGAFTPAYNNLGTNNAQTRDDPSRWNARRDPDIRDAKRGRYEGHHHHHH | not soluble
3 | MKATPAQVPMKERIKEVATDMLIAHGSSGFRFQQIAQALDCTRGNIHYHYRHKHELVEDVTIEYCQRTIGHFDQIWLSDSTLSQKIQLSMQFNEMRYLKRNPQGDTSHPWSLIARMRLESALITPAAREALARYSHELQRSVVAGVRRAVEKGELRPDTPVEMVALPIIEMANSADPITRDAGRFDRLRQMYQAVDRLIHDAYGMAGHRPAP | not soluble
4 | MIQAILVFNNHGKPRLVRFYQRFPEEIQQQIVRETFHLVLKRDDNICNFLEGGSLIGGSDYKLIYRHYATLYFVFCVDSSESELGILDLIQVFVETLDKCFENVCELDLIFHMDKVHYILQEVVMGGMVLETNMNEIVAQIEAQNRLEKSEGGLSAAPARAVSAVKNINLPEIPRNINIGDLNIKVPNLSQFV | not soluble
5 | MSLYKVTRGKSEQYLKDERALEDYLIATGLDDCAFKLANGEVRGGRDLLALVEDARAIRSTLHNLHSRYNRSVVEQAAIAGVLSPRITTDIATANEAAAYIARRLDALADEVERGWVGHFTEGEGFRFERTVRGVKEVAAIDDAMLGSADARKLDEYAAVLQEVYPRPGVLRRKEAETAIHGPISLFEAVTDAGRKGVALQRYKGLGEMNPSQLWETTLDTNARSLLQVKVREVDEADDIFTKLMGDVVEPRREFIQENSLHATVDVEGHHHHHH | soluble
6 | MAISLQKGQRISLSKEAPGLSKMMCGLGWDVAKRSGGGFFSNFGGGGQNYDLDASVICLDANGKLTAKENIIYFGNLQHLSGAITHTGDNLTGAGDGDDEVIIVDLPRIPAQIVKLVFVVNIYDCIARKQDFSQIENAFVRLVNAANNKELARYNLSGKEYLGMTGMVLAEVYRHNDDWKLAAIGNGVNVNGLGELAGSYS | not soluble
7 | MMTKTQINKLIKMMNDLDYPFEAPLKESFIESIIQIEFNSNSTNCLEKLCNEVSILFKNQPDYLTFLRAMDGFEVNGLRLFSLSIPEPSVKNLFAVNEFYRNNDDFINPDLQERLVIGDYSISIFTYDIKGDAANLLILEHHHHHH | not soluble
8 | MGSDKIHHHHHHMTTNCVIVSQRYPPEKGGNASRIHDTAVNLGDEFNVTVLAPSLCYPPGNFERTWKRKQTERDEGVIVHRLWTWQPQRENPSLLRRLPYYVIFALHAALWLVVNFRQYDVVMTSTPPITTGFPGLVAAAIGNPWVIDVRDLWIENSIALGYIQADSPLVKAGRTFQRLALHSADRITVTTETLRDAVGDTYGSELRDRVRVVPNGVDTDRFSSVSTPENNDSRIVYTGNIGSAQALEPCIRAMQHVSSDNALLQLVGDGDEVSRLKSVTERLGLEDRVEFVGLVDRERIPEILDSATVGLAPIKDSPELDYAIPTKLYEYMACSLPVVVTGRGEIKRFTTDTDVGIHTEPDPESIAVAIETLLENPEKRVAMGQDGHRVVSEEYDRQAIAGQLGEVFRTLTVTERRESCTTPDPDHD | not soluble
9 | MHHHHHHSSGRENLYFQGMWDQRLVRLALLQHLRAFYGIKVKGVRGQCDRRRHETAATEIGGKIFGVPFNALPHSAVPEYGHIPSFLVDACTSLEDHIHTEGLFRKSGSVIRLKALKNKVDHGEGCLSSAPPCDIAGLLKQFFRELPEPILPADLHEALLKAQQLGTEEKNKATLLLSCLLADHTVHVLRYFFNFLRNVSLRSSENKMDSSNLAVIFAPNLLQTSEGHEKMSSNTEKKLRLQAAVVQTLIDYASDIGRVPDFILEKIPAML | soluble
10 | MEQLYPAPIKTVEEGSPAARAGVRPGDVLLRVNGQPVTDVLAYRHQLERGVVTLEVARPHEAPRVMTGVLEHHHHHH | not soluble
11 | MGSDKIHHHHHHMIPLSRPDINEQDIERVVEVLKSGRLSLGEYTKRFGEMVAEYTGARFGWAVSSGTAALHLILESLDIDEGDLILVPSFTFIASVNVILMKRAIPVFVDVDERTLNVSPETLEEAVKRCLKGFKQGNIEIKGKPRLFMAVDVFGHPLDWDGILDVCQRYGIAVVEDSCEALGSEYKGRKVGTFGVAGAFAFYPNKQITTGEGGVVVTNDEKIHTAVKSMSNQGRGEGDEWLYHVRFGYNYRIDEMSAALGCSQMERIDEIVEKRAEAAERYSKMLKEFSWVKVPVVEDYVTKMSWFVYVVRLEGPDRNRVMRYMEEKGVQVRNYFYPVHFQPFYEKLFGSMKGLLPVTERESEKTLAIPFFTSITESEQKTVVEILREAVERVG | not soluble
12 | MGSDKIHHHHHHMRRTYLTLSEEDKDYLKTLSKKRTIQAQIVDRAKILLYKSDGMTFNAIAEKLAISSATVRLCVSKYYEGGIEKALFDTQRPGRPSEITDDAKAWIINLACQRPVELGYAQELWTLNALHKHIQKHAEEAGYPRLTTITKPYIQKFLKEQDIKPFKIRYYCEKRDQDFESKMHEVLLVYKQIEMQFDENGTLIVPDDYKLTITVSYDEKPGIQAISNTAPDLRPTTENGEVYRDAEYKRLGTLSLLAGIDLLTGEAIPLVSETHKSSDFIEFLKIRDKKYPLQDTIRIILDNHSAHTSKETQRFLDTMPKGRFKFVFTPKHGSWLNMIESFFSKMTKQMLRGIRVKTKQELEERIYQYFEEVNREPVVYHWKYKMDEIEKKKCCTELWMPFSAH | not soluble
13 | SSEELLKQALQQAQQLLQQAQELAKKGGGEELLKQALQQAQQLLQQAQELAKKGGGGEELLKQALQQAQQLLQQAQELAKKGGGEELLKQALQQAQQLLQQAQELAKK | soluble
14 | MNKLLPTSTAGSLPKPSWLAQPEKLWSPWKLQDEELTEGKQDALRLSLQEQQHAGIDIVSDGEQTRQHFVTTFIEHLSGVDFEKRETVRIRNRYDASVPTVVGAVSRPKPVFVDDAKFLRQQTRQPIKWALPGPMTMIDTLFDAHYKSREKLAWEFAKILNQEAKELEAAGVDIIQFDEPAFNVFFDEVNDWGVATLERAIEGLNCETAVHICYGYGIKANTDWKQTLGSEWRQYEESFPKLQASTIDIVSLECHNSHVPIDLIELVRGKKVMVGAIDVASNTIETPQEVADTLRKALRFVDADKLYPSTNCGMAPLARHVARGKLSALSAGADIIRAELSAQLEHHHHHH | not soluble
15 | MTYDYVIGMDACKYFHHACVLDIDGTQVLSKRINQNEQSLRALFSAFSAYDHKVLVVVDQPNNIGRLTVAVAQDIGIDVRYLPGLAMRQLSRIHAGNAKTDIRDAYIIAHAAKNLPESLRSVDRVEEAFLQLKVLNGIDEDLARSYTRLINQIRSALVGCYPQFEQALRGQIIHRKWVLHLLARYGGPTKIKRLGKAKAAAFARRYKARNPEPVLDAIFAAISEQTVTIAGAHYAEMGVAMSAKDALLKLEHRQQIEKEVIELINDIPHTQFLLSMPGIGPKTAAQILMTAGDMSDFPSAGHLASYAGLSPRTNQSGTSIMSNSLNRAGNKKLKNALWQSSFASIRFHERSRQFYERKRREGKRHNAAVVALARRRLNVLYAMMRNHEHYHDPAPSQEDLAA | not soluble
16 | MNMVSQGVKGGEYRSPQKNYTQLTFKNVDAIGHPQGAISQMLNSTGYYCQSQTTPFVPYFLSSLDFFAWRQAIPEMFYPEALVPGMREIRGNGETWGNIFPRSGAVTQVDDYKASAVSVHRVADFLTRMAQPHIYLPTAKQEQGQNGHWYPDPVQEGEVGNHKWQQLHPQLSQSCSIFPDTPPAQLSENGSYAWALWRPYKCCKRRGQTFLYSVDWSNLEHHHHHH | not soluble
17 | MAKENPPIVFGPVLSRRFGKSLGVDLSPSKKQCNYNCIYCELGKAKPIERMEEVIKVETLINAIQNALNNLTTPIDVLTITANGEPTLYPHLLELIQSIKPFLKGVKTLILSNGSLFYEPKVQQALKEFDIVKFSLDAIDLKAFERVDKPYSKDINKILEGILRFSQIYQGQLVAEVLLIKGVNDSANNLKLIAAFLKQINIARVDLSTIDRPSSFKAPKLSEDELLKCSLFFEGLCVSLPKRSITQAKKLISCGIDELLALISRRPLSAEEAPLILDSNAFKHLETLLNHKQITIKKVGSLEFYCAFLEHHHHHH | not soluble
18 | AIAGTHSGHERNGESARGGALQRLERRLAAAWAEQDAYQIEQLAGMIYDRLVRSDPSAAATVLEQNAHRLAVAGKPAEAAELATRLIRHWRELEQRPFYLARLQQMVLEPLQALSGVEAARARTMVLEAVLAWKRASATVDTEEAAPAELAPVQDALVDAYVLCGEWARAQYQVVCRGGPAERDLAFIDEQLGPHLANDVERMLARTRLVLFYVLAGNLKAGRALVEEIQRKHPTAPMTNFVVILMQVLERARNVDSSKRRLLRNFCDDLKRVYHWAFSLDPELDAMLDDVLKAQGL | soluble
19 | MGSDKIHHHHHHMVKKREGDEVQSELMRILAEKQERKENIALVTVISSNSPRGCRAGEMMLVDRFGYIIGDGIGDSLLQENAQREAQICINEGISRRVILPSEEGMTEVFINAFCHRDQLIIVGSGNVALNVYRIASIVGYSITVIDNRAETLSRERFPEAKELLLGDIVELLKAYNIDENTSIVLLSYHHEFDEAALLTVIHSPARYIGIMGNKHKVTAYFSKLNELNIAEELISRVHVPVGIDIGGERAAEIALAVVAEMQAIKYGRAGGFRILQSEITGKVERDELF | not soluble
20 | MSLVDLDLTQIQKDILYALITLYKKKSGGSVKGEEIAELINRNPGTVRNQMQALRALGLVEGVPGPKGGYRPTSKAYELLSVTRPEESVVVPVVVNGNVMEELSAEEIVLPSISNPNICQARIRIIGDIKKINPGDSVIVGPTPVNEMMVYGKVVGRDDTENTIVLDIEKIVALPKDTVGEHMSSPIISVDAEESVVNAAKVLAENGIYCTPVQKNGKFVGIFTLDHVAKAVAEGKLNAKVEEVMRPKLVMVEKDTKIGEALRLMRDEKVRILLVTDKGEPVGVITDQKILTRLAPEQVETEGHHHHHH | soluble
21 | MGSDKIHHHHHHMSKVFSPFQFDNSFVRSMEGFFEPWQGARVPAPAMVCFNQQLADELGMDADAMEDSRLAAFFCGMLTAEGSEPVAMAYAGHQFGGFSPRLGDGRALLLGEVKDIHGRRRDLHLKGSGRTNFSRGGDGKAVLGPVLREYLMGEAMHALGIPTTRALAAVTTGEDIYRDGIKPGAVLARVASSHIRVGTFEYAAARGDHEGLRELVNYSLKRHYPELEDEQTPALALLNSVSRAQAKLVAKWMGVGFIHGVMNTDNVTISGETIDYGPCAFMDTYDARTVFSSIDHEGRYAYGNQPGIARWNLARFAEALLPLLAEDESEALAHAQTVLDGFAEVYTNEWLAVFAAKFGLKTAQDGDLELFMDFLTLLGELKLDFTRSFRALANSLGDTAAAGIEALTADSARFAPWLTRWHERLGREYASQSDFASDARALMQGVNPVYIPRNHLLQGALDSAEAGDMAPFERLLEVVCRPYEELAGYGAYALGAPEDFGPFRTFCGT | not soluble
22 | MAHHHHHHSLKTKIIVIVGPTAVGKTALAIEVAKRFNGEVVSGDSQQVYRGLDIGTAKASPEEQAAVPHHLIDVREITESYSAFDFVSEAKMTIEDIHSRGKLAIIAGGTGLYIQSLLEGYHLGGETPHEEILAYRASLEPYSDEELAHLVEQAGLEIPQFNRRRAMRALEIAHFGQDLENQEILYEPLIICLDDERSQLYERINHRVDLMFEAGLLDEAKWLFDHSPNVQAAKGIGYKELFPYFRGEQTFEEARESLKQATRRFAKRQLTWFRNRMQVTFYQIGESGVQDRILSQIEEFLDDEG | not soluble
